Source: article PMC11402598
Several values for one entry are separate records, joined by “and”; a condition that tells them apart may be missing. Identical values can stand only once.

Tests used:
Fc of human IgG1 (human) = test: cryo-EM structure; pre-SEC O432-17-Fc sample, 0.5 mg/ml in 25 mM Tris pH 8.0, 150 mM NaCl; octahedral symmetry applied; design model refined into the map
[1] = biological target: O432-17(–) nanoparticle assembled with Fc (human); test: SEC; in vitro packaging: 1x tetramer, 1x Fc, 1.1x negatively charged trimeric plug, 1x pos36GFP, dialysed 16 h at 25 °C into 25 mM Tris pH 8.0, 200 mM NaCl; Superose 6 10/300 GL; absorbance at 280 and 488 nm

stoichiometry N (Fc of human IgG1 (human))	Substance	stoichiometry N (pos36GFP per nanoparticle) [1]
2	Fc of human IgG1 (domain or fragment)	–
–	positively charged GFP (pos36GFP)	9 and 10
